Experimental data as given in patent US20220031857A1.

Legend:
[1] = target: recombinant mouse TfR1 (transferrin receptor 1) (mouse) (UniProt Q62351); test: Octet, mouse TfR1 immobilised on biosensors; row buffer (no first antibody), column 8D3
[2] = target: recombinant mouse TfR1 (transferrin receptor 1) (mouse) (UniProt Q62351); test: Octet, mouse TfR1 on anti-His biosensors, analyte 10 nM, PBS pH 6.0
[3] = target: recombinant mouse TfR1 (transferrin receptor 1) (mouse) (UniProt Q62351); test: Octet, mouse TfR1 on anti-His biosensors, analyte 10 nM, PBS pH 7.2

Sequence of recombinant mouse TfR1 (transferrin receptor 1) (mouse) (Q62351 89-763 limits assumed): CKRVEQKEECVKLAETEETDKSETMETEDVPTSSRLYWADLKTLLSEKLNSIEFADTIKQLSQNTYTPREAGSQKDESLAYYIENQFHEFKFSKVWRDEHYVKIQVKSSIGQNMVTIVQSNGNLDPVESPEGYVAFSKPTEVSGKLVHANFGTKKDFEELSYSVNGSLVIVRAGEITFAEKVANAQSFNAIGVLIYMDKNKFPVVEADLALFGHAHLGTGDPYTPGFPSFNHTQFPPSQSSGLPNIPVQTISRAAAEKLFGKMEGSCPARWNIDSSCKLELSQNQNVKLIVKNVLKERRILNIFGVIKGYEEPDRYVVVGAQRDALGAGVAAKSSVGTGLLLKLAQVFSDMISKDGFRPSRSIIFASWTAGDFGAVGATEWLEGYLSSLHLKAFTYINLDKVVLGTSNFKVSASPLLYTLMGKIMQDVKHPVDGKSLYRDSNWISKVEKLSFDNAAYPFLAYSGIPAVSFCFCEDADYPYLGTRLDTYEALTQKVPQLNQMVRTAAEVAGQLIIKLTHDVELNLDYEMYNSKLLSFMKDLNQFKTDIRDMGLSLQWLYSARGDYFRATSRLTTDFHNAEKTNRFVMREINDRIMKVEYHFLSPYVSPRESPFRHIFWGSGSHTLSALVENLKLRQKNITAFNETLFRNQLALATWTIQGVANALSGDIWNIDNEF

B1: 8D3 monoclonal antibody to mouse TfR (antibody, from another filing, V domains shown)
VH: EVQLVESGGGLVQPGNSLTLSCVASGFTFSNYGMHWIRQAPKKGLEWIAMIYYDSSKMNYADTVKGRFTISRDNSKNTLYLEMNSLRSEDTAMYYCAVPTSHYVVDVWGQGVSVTVSS
VL: DIQMTQSPASLSASLEEIVTITCQASQDIGNWLAWYQQKPGKSPQLLIYGATSLADGVPSRFSGSRSGTQFSLKISRVQVEDIGIYYCLQAYNTPWTFGGGTKLELK
[1]
  Octet signal as second antibody after buffer: 0.33
[2]
  Kd: 0.247 nM
  koff: 0.000126 s⁻¹
  kon: 511000 M⁻¹ s⁻¹
[3]
  Kd: 0.221 nM
  koff: 0.000131 s⁻¹
  kon: 591000 M⁻¹ s⁻¹
